In assay [1] the target is Clp-GST (L. enzymogenes Clp purified as GST-fusion) (Lysobacter enzymogenes) (UniProt Q7WZ07). As to the kind of experiment: MST.
For assay [2] the target is unchanged. As to the kind of experiment: MST. The source holds these as a separate data set.

Like-named read-outs stand apart in the source and are kept apart here.

One may read the Kd as the concentration at which binding is half-saturated. A higher Kd goes with weaker binding.

Consider “LchP-PGE-MBP (cytoplasmic fragment of LchP, PAS+GGDEF+EAL domains, fused to maltose binding protein) (domain or fragment)”, for which the equilibrium dissociation constant (Kd) in assay [1] turned out to be 1.42 nM; in assay [2] it was 7.18 nM.
